Square brackets hold non-standard residues; d marks the D form. Aib = CC(C)(N)C(=O)O
T1: human GLP-2 receptor (hGLP2-R) (human, UniProt O95838)
T1 sequence: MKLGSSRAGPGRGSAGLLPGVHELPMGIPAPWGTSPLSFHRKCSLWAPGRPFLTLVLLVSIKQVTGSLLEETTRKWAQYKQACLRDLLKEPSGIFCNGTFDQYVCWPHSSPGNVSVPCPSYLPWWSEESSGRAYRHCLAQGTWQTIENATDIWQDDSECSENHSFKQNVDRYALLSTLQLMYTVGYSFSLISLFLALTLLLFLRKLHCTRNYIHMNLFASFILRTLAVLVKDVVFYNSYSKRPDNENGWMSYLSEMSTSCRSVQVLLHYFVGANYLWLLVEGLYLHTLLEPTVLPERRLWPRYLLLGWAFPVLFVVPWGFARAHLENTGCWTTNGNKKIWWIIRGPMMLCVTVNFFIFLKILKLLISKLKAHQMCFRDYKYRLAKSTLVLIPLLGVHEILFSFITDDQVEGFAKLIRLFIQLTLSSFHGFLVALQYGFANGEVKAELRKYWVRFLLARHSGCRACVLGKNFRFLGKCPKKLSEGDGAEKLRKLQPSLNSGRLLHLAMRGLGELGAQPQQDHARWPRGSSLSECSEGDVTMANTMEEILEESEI

B1: Compound 37 (peptide)
peptide: H-H[Aib]EGTFTSELATILDEQAARDFINWLKEQKITD-OH
SMILES: CC[C@H](C)[C@H](NC(=O)[C@H](Cc1ccccc1)NC(=O)[C@H](CC(=O)O)NC(=O)[C@H](CCCNC(=N)N)NC(=O)[C@H](C)NC(=O)[C@H](C)NC(=O)[C@H](CCC(N)=O)NC(=O)[C@H](CCC(=O)O)NC(=O)[C@H](CC(=O)O)NC(=O)[C@H](CC(C)C)NC(=O)[C@@H](NC(=O)[C@@H](NC(=O)[C@H](C)NC(=O)[C@H](CC(C)C)NC(=O)[C@H](CCC(=O)O)NC(=O)[C@H](CO)NC(=O)[C@@H](NC(=O)[C@H](Cc1ccccc1)NC(=O)[C@@H](NC(=O)CNC(=O)[C@H](CCC(=O)O)NC(=O)C(C)(C)NC(=O)[C@@H](N)Cc1c[nH]cn1)[C@@H](C)O)[C@@H](C)O)[C@@H](C)O)[C@@H](C)CC)C(=O)N[C@@H](CC(N)=O)C(=O)N[C@@H](Cc1c[nH]c2ccccc12)C(=O)N[C@@H](CC(C)C)C(=O)N[C@@H](CCCCN)C(=O)N[C@@H](CCC(=O)O)C(=O)N[C@@H](CCC(N)=O)C(=O)N[C@@H](CCCCN)C(=O)N[C@H](C(=O)N[C@H](C(=O)N[C@@H](CC(=O)O)C(=O)O)[C@@H](C)O)[C@@H](C)CC
B2: Compound 32 (peptide)
peptide: H-H[Aib]EGTFSSELATILDGKAARDFIAWLIAHKITD-OH
SMILES: CC[C@H](C)[C@H](NC(=O)[C@H](CC(C)C)NC(=O)[C@H](Cc1c[nH]c2ccccc12)NC(=O)[C@H](C)NC(=O)[C@@H](NC(=O)[C@H](Cc1ccccc1)NC(=O)[C@H](CC(=O)O)NC(=O)[C@H](CCCNC(=N)N)NC(=O)[C@H](C)NC(=O)[C@H](C)NC(=O)[C@H](CCCCN)NC(=O)CNC(=O)[C@H](CC(=O)O)NC(=O)[C@H](CC(C)C)NC(=O)[C@@H](NC(=O)[C@@H](NC(=O)[C@H](C)NC(=O)[C@H](CC(C)C)NC(=O)[C@H](CCC(=O)O)NC(=O)[C@H](CO)NC(=O)[C@H](CO)NC(=O)[C@H](Cc1ccccc1)NC(=O)[C@@H](NC(=O)CNC(=O)[C@H](CCC(=O)O)NC(=O)C(C)(C)NC(=O)[C@@H](N)Cc1c[nH]cn1)[C@@H](C)O)[C@@H](C)O)[C@@H](C)CC)[C@@H](C)CC)C(=O)N[C@@H](C)C(=O)N[C@@H](Cc1c[nH]cn1)C(=O)N[C@@H](CCCCN)C(=O)N[C@H](C(=O)N[C@H](C(=O)N[C@@H](CC(=O)O)C(=O)O)[C@@H](C)O)[C@@H](C)CC
B3: Compound 33 (peptide)
peptide: H-H[Aib]EGTFTSELATILDEQAARDFINWLIAHKITD-OH
SMILES: CC[C@H](C)[C@H](NC(=O)[C@H](CC(C)C)NC(=O)[C@H](Cc1c[nH]c2ccccc12)NC(=O)[C@H](CC(N)=O)NC(=O)[C@@H](NC(=O)[C@H](Cc1ccccc1)NC(=O)[C@H](CC(=O)O)NC(=O)[C@H](CCCNC(=N)N)NC(=O)[C@H](C)NC(=O)[C@H](C)NC(=O)[C@H](CCC(N)=O)NC(=O)[C@H](CCC(=O)O)NC(=O)[C@H](CC(=O)O)NC(=O)[C@H](CC(C)C)NC(=O)[C@@H](NC(=O)[C@@H](NC(=O)[C@H](C)NC(=O)[C@H](CC(C)C)NC(=O)[C@H](CCC(=O)O)NC(=O)[C@H](CO)NC(=O)[C@@H](NC(=O)[C@H](Cc1ccccc1)NC(=O)[C@@H](NC(=O)CNC(=O)[C@H](CCC(=O)O)NC(=O)C(C)(C)NC(=O)[C@@H](N)Cc1c[nH]cn1)[C@@H](C)O)[C@@H](C)O)[C@@H](C)O)[C@@H](C)CC)[C@@H](C)CC)C(=O)N[C@@H](C)C(=O)N[C@@H](Cc1c[nH]cn1)C(=O)N[C@@H](CCCCN)C(=O)N[C@H](C(=O)N[C@H](C(=O)N[C@@H](CC(=O)O)C(=O)O)[C@@H](C)O)[C@@H](C)CC
B4: Compound 35 (peptide)
peptide: H-H[Aib]EGTFTSELATILDEQAARDFINWLKAHKITD-OH
SMILES: CC[C@H](C)[C@H](NC(=O)[C@H](Cc1ccccc1)NC(=O)[C@H](CC(=O)O)NC(=O)[C@H](CCCNC(=N)N)NC(=O)[C@H](C)NC(=O)[C@H](C)NC(=O)[C@H](CCC(N)=O)NC(=O)[C@H](CCC(=O)O)NC(=O)[C@H](CC(=O)O)NC(=O)[C@H](CC(C)C)NC(=O)[C@@H](NC(=O)[C@@H](NC(=O)[C@H](C)NC(=O)[C@H](CC(C)C)NC(=O)[C@H](CCC(=O)O)NC(=O)[C@H](CO)NC(=O)[C@@H](NC(=O)[C@H](Cc1ccccc1)NC(=O)[C@@H](NC(=O)CNC(=O)[C@H](CCC(=O)O)NC(=O)C(C)(C)NC(=O)[C@@H](N)Cc1c[nH]cn1)[C@@H](C)O)[C@@H](C)O)[C@@H](C)O)[C@@H](C)CC)C(=O)N[C@@H](CC(N)=O)C(=O)N[C@@H](Cc1c[nH]c2ccccc12)C(=O)N[C@@H](CC(C)C)C(=O)N[C@@H](CCCCN)C(=O)N[C@@H](C)C(=O)N[C@@H](Cc1c[nH]cn1)C(=O)N[C@@H](CCCCN)C(=O)N[C@H](C(=O)N[C@H](C(=O)N[C@@H](CC(=O)O)C(=O)O)[C@@H](C)O)[C@@H](C)CC
B5: Compound 34 (peptide)
peptide: H-H[Aib]EGTFTSELATILDEQAARDFISWLIAHKITD-OH
SMILES: CC[C@H](C)[C@H](NC(=O)[C@H](CC(C)C)NC(=O)[C@H](Cc1c[nH]c2ccccc12)NC(=O)[C@H](CO)NC(=O)[C@@H](NC(=O)[C@H](Cc1ccccc1)NC(=O)[C@H](CC(=O)O)NC(=O)[C@H](CCCNC(=N)N)NC(=O)[C@H](C)NC(=O)[C@H](C)NC(=O)[C@H](CCC(N)=O)NC(=O)[C@H](CCC(=O)O)NC(=O)[C@H](CC(=O)O)NC(=O)[C@H](CC(C)C)NC(=O)[C@@H](NC(=O)[C@@H](NC(=O)[C@H](C)NC(=O)[C@H](CC(C)C)NC(=O)[C@H](CCC(=O)O)NC(=O)[C@H](CO)NC(=O)[C@@H](NC(=O)[C@H](Cc1ccccc1)NC(=O)[C@@H](NC(=O)CNC(=O)[C@H](CCC(=O)O)NC(=O)C(C)(C)NC(=O)[C@@H](N)Cc1c[nH]cn1)[C@@H](C)O)[C@@H](C)O)[C@@H](C)O)[C@@H](C)CC)[C@@H](C)CC)C(=O)N[C@@H](C)C(=O)N[C@@H](Cc1c[nH]cn1)C(=O)N[C@@H](CCCCN)C(=O)N[C@H](C(=O)N[C@H](C(=O)N[C@@H](CC(=O)O)C(=O)O)[C@@H](C)O)[C@@H](C)CC
B6: Compound 36 (peptide)
peptide: H-H[Aib]EGTFTSELATILDEQAARDFINWLKSYKITD-OH
SMILES: CC[C@H](C)[C@H](NC(=O)[C@H](Cc1ccccc1)NC(=O)[C@H](CC(=O)O)NC(=O)[C@H](CCCNC(=N)N)NC(=O)[C@H](C)NC(=O)[C@H](C)NC(=O)[C@H](CCC(N)=O)NC(=O)[C@H](CCC(=O)O)NC(=O)[C@H](CC(=O)O)NC(=O)[C@H](CC(C)C)NC(=O)[C@@H](NC(=O)[C@@H](NC(=O)[C@H](C)NC(=O)[C@H](CC(C)C)NC(=O)[C@H](CCC(=O)O)NC(=O)[C@H](CO)NC(=O)[C@@H](NC(=O)[C@H](Cc1ccccc1)NC(=O)[C@@H](NC(=O)CNC(=O)[C@H](CCC(=O)O)NC(=O)C(C)(C)NC(=O)[C@@H](N)Cc1c[nH]cn1)[C@@H](C)O)[C@@H](C)O)[C@@H](C)O)[C@@H](C)CC)C(=O)N[C@@H](CC(N)=O)C(=O)N[C@@H](Cc1c[nH]c2ccccc12)C(=O)N[C@@H](CC(C)C)C(=O)N[C@@H](CCCCN)C(=O)N[C@@H](CO)C(=O)N[C@@H](Cc1ccc(O)cc1)C(=O)N[C@@H](CCCCN)C(=O)N[C@H](C(=O)N[C@H](C(=O)N[C@@H](CC(=O)O)C(=O)O)[C@@H](C)O)[C@@H](C)CC
B7: Compound 2 (peptide)
peptide: H-H[Aib]EGTFSSELATILDEQAARDFIAWLIAHKITD-OH
SMILES: CC[C@H](C)[C@H](NC(=O)[C@H](CC(C)C)NC(=O)[C@H](Cc1c[nH]c2ccccc12)NC(=O)[C@H](C)NC(=O)[C@@H](NC(=O)[C@H](Cc1ccccc1)NC(=O)[C@H](CC(=O)O)NC(=O)[C@H](CCCNC(=N)N)NC(=O)[C@H](C)NC(=O)[C@H](C)NC(=O)[C@H](CCC(N)=O)NC(=O)[C@H](CCC(=O)O)NC(=O)[C@H](CC(=O)O)NC(=O)[C@H](CC(C)C)NC(=O)[C@@H](NC(=O)[C@@H](NC(=O)[C@H](C)NC(=O)[C@H](CC(C)C)NC(=O)[C@H](CCC(=O)O)NC(=O)[C@H](CO)NC(=O)[C@H](CO)NC(=O)[C@H](Cc1ccccc1)NC(=O)[C@@H](NC(=O)CNC(=O)[C@H](CCC(=O)O)NC(=O)C(C)(C)NC(=O)[C@@H](N)Cc1c[nH]cn1)[C@@H](C)O)[C@@H](C)O)[C@@H](C)CC)[C@@H](C)CC)C(=O)N[C@@H](C)C(=O)N[C@@H](Cc1c[nH]cn1)C(=O)N[C@@H](CCCCN)C(=O)N[C@H](C(=O)N[C@H](C(=O)N[C@@H](CC(=O)O)C(=O)O)[C@@H](C)O)[C@@H](C)CC

Experiments:
[1] = biological target: human glucagon-like peptide 1 receptor (GLP-1R) (human, UniProt P43220); test: cell-based or functional assay
[2] = biological target: T1, human GLP-2 receptor (hGLP2-R); test: cell-based or functional assay

Binder | EC50 GLP-1 (nM); cAMP AlphaScreen [1] [nM] | EC50 GLP-2 (nM); cAMP AlphaScreen [2] [nM]
B1 | 0.007 | 0.16
B2 | 0.038 | 0.15
H-HGEGTFTSELATILDEQAARDFIAWLIAHKITD-OH [Compound 38] | 0.008 | 0.043
B3 | 0.004 | 0.041
B4 | 0.006 | 0.048
B5 | 0.005 | 0.049
B6 | 0.007 | 0.11
B7 | 0.046 | 0.034
